This is an account of results in patent US20150315278A1 (Chugai, published 2015).

Assay [1] deals with T1, soluble GPC3 core polypeptide (Homo sapiens (Human), UniProt P51654 25-563).
T1 construct: Immobilized on the ELISA plate at 1 ug/mL; also called glypican 3 antigen; glypican 3
The assay is described as follows: competitive ELISA against biotinylated H0L0 on immobilized soluble GPC3 core (FIG. 4). The protocol: (§1) The H0L0 antibody and its point mutation-modified antibodies purified in (1) was evaluated by competitive ELISA. 100 μL of the soluble GPC3 core polypeptide (SEQ ID NO: 13) at 1 μg/mL was added to each well of a 96-well plate. The soluble GPC3 core polypeptide was immobilized on the plate by allowing the plate to stand overnight at 4° C. The soluble GPC3 core polypeptide immobilized on the plate was washed 3 times with a washing buffer using Skan WASHER400 (Molecular Devices); and blocked with 200 μL blocking buffer at 4° C. for at least 30 min. The blocked plate on which soluble GPC3 core polypeptide was immobilized was then washed 3 times with washing buffer using the Skan WASHER400. Subsequently, each well of the plate received 200 μL of a mixture containing 100 μL of biotinylated H0L0 antibody (final concentration=0.3 μg/mL) and 100 μL of the H0L0 antibody or its point mutation-modified antibody (at various concentrations). The H0L0 antibody was biotinylated using Biotin Labeling Kit (Roche) according to the instructions provided with the kit. The plate was left stand for 1 hour at room temperature, then washed 5 times with washing buffer using the Skan WASHER400 (Molecular Devices). […] The absorbance at 405 nm of the reaction solution in each well was measured using Benchmark Plus (BIO-RAD), with the control absorbance at 655 nm.

In assay [2] the target is T1, soluble GPC3 core polypeptide. Kind of assay: competitive ELISA against biotinylated H0L0 on immobilized soluble GPC3 core (FIG. 14). The protocol:
The H0L0 antibody and its point mutation-modified antibodies purified in (1) was evaluated by competitive ELISA. 100 μL of the soluble GPC3 core polypeptide (SEQ ID NO: 13) at 1 μg/mL was added to each well of a 96-well plate. The soluble GPC3 core polypeptide was immobilized on the plate by allowing the plate to stand overnight at 4° C. The soluble GPC3 core polypeptide immobilized on the plate was washed 3 times with a washing buffer using Skan WASHER400 (Molecular Devices); and blocked with 200 μL blocking buffer at 4° C. for at least 30 min. The blocked plate on which soluble GPC3 core polypeptide was immobilized was then washed 3 times with washing buffer using the Skan WASHER400. Subsequently, each well of the plate received 200 μL of a mixture containing 100 μL of biotinylated H0L0 antibody (final concentration=0.3 μg/mL) and 100 μL of the H0L0 antibody or its point mutation-modified antibody (at various concentrations). The H0L0 antibody was biotinylated using Biotin Labeling Kit (Roche) according to the instructions provided with the kit. The plate was left stand for 1 hour at room temperature, then washed 5 times with washing buffer using the Skan WASHER400 (Molecular Devices). 100 μL goat anti-streptavidin alkaline phosphatase (ZYMED), diluted 20,000× with substrate buffer, was added to each well, and the resulting plate was left stand for 1 hour at room temperature, and then washed 5 times with washing buffer using the Skan WASHER400. Phosphatase Substrate (Sigma) was prepared at 1 mg/mL in the substrate buffer, added at 100 μL per well for 1 hour. The absorbance at 405 nm of the reaction solution in each well was measured using Benchmark Plus (BIO-RAD), with the control absorbance at 655 nm.
The binding activity to the antigen of each constant region pI modified antibody was measured using the method described in Example 1 (FIG. 14).
(In general: In an ELISA, binding on a coated surface is turned into a signal by an enzyme label.)

The target is the same in assay [3]. The assay is described as follows: competitive ELISA against biotinylated H0L0 on immobilized soluble GPC3 core (FIG. 5). The protocol:
as §1

For assay [4] the target is unchanged. The assay is described as follows: competitive ELISA against biotinylated H0L0 on immobilized soluble GPC3 core (FIG. 6). The protocol: as §1
Assay [5] has the same target. The assay is described as follows: competitive ELISA against biotinylated H0L0 on immobilized soluble GPC3 core (FIG. 10). On the procedure:
as §1, with “kit.” for “kit. The plate was left stand for 1 hour at room temperature, then washed 5 times with washing buffer using the Skan WASHER400 (Molecular Devices).”
The binding activity to the antigen glypican 3 of each point mutation pI modified antibody was measured using the method described in Example 1 (FIG. 10).

T1 sequence (P51654 other isoform, or with tags, fused parts or gaps limits assumed): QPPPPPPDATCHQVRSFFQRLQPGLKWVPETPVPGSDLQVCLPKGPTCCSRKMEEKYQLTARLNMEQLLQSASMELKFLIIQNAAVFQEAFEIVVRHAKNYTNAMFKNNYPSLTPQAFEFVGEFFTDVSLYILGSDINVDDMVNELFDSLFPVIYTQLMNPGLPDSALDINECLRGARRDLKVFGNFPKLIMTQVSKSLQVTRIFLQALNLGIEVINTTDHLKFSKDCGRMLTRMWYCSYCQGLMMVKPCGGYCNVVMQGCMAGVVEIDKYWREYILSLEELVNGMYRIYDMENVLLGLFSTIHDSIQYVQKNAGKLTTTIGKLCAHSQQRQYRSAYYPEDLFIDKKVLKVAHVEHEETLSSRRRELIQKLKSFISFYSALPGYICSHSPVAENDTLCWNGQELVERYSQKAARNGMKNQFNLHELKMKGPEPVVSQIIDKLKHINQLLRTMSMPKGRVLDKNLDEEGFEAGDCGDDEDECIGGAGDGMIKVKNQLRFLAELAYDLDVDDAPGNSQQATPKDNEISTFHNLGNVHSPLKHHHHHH

B1: H15L4 antibody (antibody, V domains shown)
VH: QVQLVQSGAEVKKPGASVKVSCKASGYTFTDYEMHWIRQPPGQGLEWIGAIDPKTGDTAYSQKFKGRVTLTADKSTSTAYMELSSLTSEDTAVYYCTRFYSYTYWGQGTLVTVSS
VL: DIVMTQSPLSLPVTPGEPASISCRSSQSLVHSNRNTYLHWYQQKPGQAPRLLIYKVSNRFSGVPDRFSGSGSGTDFTLKISRVEAEDVGVYYCSQNTHVPPTFGQGTKLEIK
notes: Point-mutation modified form of H0L0
Regarding B1, the binding result in assay [1] is listed as “binds”.

B2: H0M85L0 antibody (antibody, human IgG1, V domains shown)
VH: QVQLVQSGAEVKKPGASVKVSCKASGYTFTDYEMHWVRQAPGQGLEWMGALDPKTGDTAYSQKFKGRVTLTADKSTSTAYMELSSLTSEDTAVYYCTRFYSYTYWGQGTLVTVSS
VL: DVVMTQSPLSLPVTPGEPASISCRSSQSLVHSNRNTYLHWYLQKPGQSPQLLIYKVSNRFSGVPDRFSGSGSGTDFTLKISRVEAEDVGVYYCSQNTHVPPTFGQGTKLEIK
notes: its constant region is not specified
Turning to B2, in assay [2], the binding result is on record as “binds”.

B3: pH7pL16 antibody (antibody, IgG1, V domains shown)
VH: QVQLVQSGAEVKKPGASVTVSCKASGYTFTDYEMHWIRQPPGEGLEWIGAIDPKTGDTAYSESFQDRVTLTADKSTSTAYMELSSLTSEDTAVYYCTRFYSYTYWGQGTLVTVSS
VL: DIVMTQSPLSLPVTPGEPASISCQASESLVHSNRNTYLHWYLQKPGQSPQLLIYKVSNRFSGVPDRFSGSGSGTDFTLKISRVEAEDVGVYYCSQNTHVPPTFGQGTKVEIE
notes: Variable regions only
For the molecule B3, in assay [2], the binding result is on record as “binds”.

B4: pH7M85pL16 antibody (antibody, human IgG1, V domains shown)
VH: QVQLVQSGAEVKKPGASVTVSCKASGYTFTDYEMHWIRQPPGEGLEWIGAIDPKTGDTAYSESFQDRVTLTADKSTSTAYMELSSLTSEDTAVYYCTRFYSYTYWGQGTLVTVSS
VL: DIVMTQSPLSLPVTPGEPASISCQASESLVHSNRNTYLHWYLQKPGQSPQLLIYKVSNRFSGVPDRFSGSGSGTDFTLKISRVEAEDVGVYYCSQNTHVPPTFGQGTKVEIE
notes: its constant region is not specified; also called pH7M85pL6 [sic]
For B4, the binding result in assay [2] is listed as “binds”.

B5: Hspu2.2Lspu2.2 (Hu2.2Lu2.2) antibody (antibody, V domains shown)
VH: QVQLVQSGAEVKKPGASVKVSCKASGYTFTDYEMHWIRQPPGKGLEWIGAINPKTGDTAYSQKFKGRVTLTADKSTSTAYMELSSLTSEDTAVYYCTRFYSYTYWGRGTLVTVSS
VL: DIVMTQSPLSLPVTPGQPASISCRASRSLVHSNRNTYLHWYQQKPGQAPRLLIYKVSNRFSGVPDRFSGSGSGTDFTLKISRVEAEDVGVYYCSQNTHVPPTFGRGTKLEIK
notes: Raised-pI variant; Hspu2.2 = H15 + Q43K, D52N, Q107R; Lspu2.2 = L4 + E17Q, Q27R, Q105R, S25A
Regarding B5, in assay [3], the binding result is recorded as “binds”.

B6: humanized H0L0 antibody (antibody, V domains shown)
VH: QVQLVQSGAEVKKPGASVKVSCKASGYTFTDYEMHWVRQAPGQGLEWMGALDPKTGDTAYSQKFKGRVTLTADKSTSTAYMELSSLTSEDTAVYYCTRFYSYTYWGQGTLVTVSS
VL: DVVMTQSPLSLPVTPGEPASISCRSSQSLVHSNRNTYLHWYLQKPGQSPQLLIYKVSNRFSGVPDRFSGSGSGTDFTLKISRVEAEDVGVYYCSQNTHVPPTFGQGTKLEIK
notes: the light chain constant region is not specified; also called humanized GC33 antibody
For the molecule B6, the binding result in assay [2] is listed as “binds”.

B7: Hspd1.8Lspd1.6 (Hd1.8Ld1.6) antibody (antibody, V domains shown)
VH: QVQLVQSGAEVKKPGASVTVSCKASGYTFTDYEMHWIRQPPGEGLEWIGAIDPKTGDTAYSQSFQDRVTLTADKSTSTAYMELSSLTSEDTAVYYCTRFYSYTYWGQGTLVTVSS
VL: DIVMTQSPLSLPVTPGEPASISCRASESLVHSNRNTYLHWYQQKPGQAPRLLIYKVSNRFSGVPDRFSGSGSGTDFTLTISSLQAEDVGVYYCSQNTHVPPTFGQGTKLEIK
notes: Lowered-pI variant; Hspd1.8 = H15 + K19T, Q43E, K63S, K65Q, G66D; Lspd1.6 = L4 + Q27E, KISRVE(79-84) to TISSLQ, S25A
As for B7, the binding result in assay [4] is listed as “binds”.

B8: pH7pL14 antibody (antibody, V domains shown)
VH: QVQLVQSGAEVKKPGASVTVSCKASGYTFTDYEMHWIRQPPGEGLEWIGAIDPKTGDTAYSESFQDRVTLTADKSTSTAYMELSSLTSEDTAVYYCTRFYSYTYWGQGTLVTVSS
VL: DIVMTQSPLSLPVTPGEPASISCQASESLVHSNRNTYLHWYLQKPGQSPQLLIYKVSNRFSGVPDRFSGSGSGTDFTLKISRVEAEDVGVYYCSQNTHVPPTFGQGTKLEIK
As to B8, the binding result in assay [5] is on record as “binds”.
